Values belong to the binder of their own block, whether it stands above or below them.
How the values were obtained:
[1] = target: TrkB, Dog (Canis familiaris, XM_851329) on 293 cells (dog (Canis familiaris)); test: cell-based ELISA on transfected 293 cells
[2] = target: TrkB, Dog (Canis familiaris, XM_851329) on 293 cells (dog (Canis familiaris)); test: cell-based ELISA on transiently transfected HEK293 cells
[3] = target: hTrkA in the SHC1 recruitment assay (U2OS, Discoverx Pathhunter) (human) (UniProt P04629); test: cell-based or functional assay
[4] = target: hTrkB-a isoform fused to a small peptide epitope, in U2OS cells (Discoverx Pathhunter) (human) (UniProt Q16620); test: cell-based or functional assay
[5] = target: hTrkC in the SHC1 recruitment assay (U2OS, Discoverx Pathhunter) (human) (UniProt Q16288); test: cell-based or functional assay
[6] = target: human TrkC (open reading frame from NM_001012338.1) in HEK-293 cells (human) (UniProt Q16288); test: cell-based or functional assay
Sequence of human TrkC (open reading frame from NM_001012338.1) in HEK-293 cells (human) (Q16288 32-839): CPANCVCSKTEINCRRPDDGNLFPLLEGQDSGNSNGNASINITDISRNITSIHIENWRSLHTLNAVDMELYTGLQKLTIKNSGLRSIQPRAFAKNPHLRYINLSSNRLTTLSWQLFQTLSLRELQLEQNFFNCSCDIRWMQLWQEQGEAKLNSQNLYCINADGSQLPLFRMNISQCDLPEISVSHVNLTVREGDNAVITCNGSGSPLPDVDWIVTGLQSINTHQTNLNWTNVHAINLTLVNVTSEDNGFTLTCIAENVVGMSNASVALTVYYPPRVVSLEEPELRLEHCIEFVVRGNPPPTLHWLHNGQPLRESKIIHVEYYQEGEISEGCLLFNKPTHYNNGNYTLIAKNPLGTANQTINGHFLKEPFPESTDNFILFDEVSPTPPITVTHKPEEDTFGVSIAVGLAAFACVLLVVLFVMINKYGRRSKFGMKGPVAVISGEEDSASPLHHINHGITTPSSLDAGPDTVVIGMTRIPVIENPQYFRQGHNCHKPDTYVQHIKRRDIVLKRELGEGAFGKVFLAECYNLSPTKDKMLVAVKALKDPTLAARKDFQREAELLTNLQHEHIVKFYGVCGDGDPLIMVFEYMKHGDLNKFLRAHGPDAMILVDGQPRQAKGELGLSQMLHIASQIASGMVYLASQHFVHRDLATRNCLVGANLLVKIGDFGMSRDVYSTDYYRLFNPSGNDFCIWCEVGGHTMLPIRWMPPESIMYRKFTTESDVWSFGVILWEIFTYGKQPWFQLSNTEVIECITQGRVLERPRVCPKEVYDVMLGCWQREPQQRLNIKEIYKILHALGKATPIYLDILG

Sequence of hTrkC in the SHC1 recruitment assay (U2OS, Discoverx Pathhunter) (human) (Q16288 32-839): as above
Sequence of hTrkA in the SHC1 recruitment assay (U2OS, Discoverx Pathhunter) (human) (P04629 33-796): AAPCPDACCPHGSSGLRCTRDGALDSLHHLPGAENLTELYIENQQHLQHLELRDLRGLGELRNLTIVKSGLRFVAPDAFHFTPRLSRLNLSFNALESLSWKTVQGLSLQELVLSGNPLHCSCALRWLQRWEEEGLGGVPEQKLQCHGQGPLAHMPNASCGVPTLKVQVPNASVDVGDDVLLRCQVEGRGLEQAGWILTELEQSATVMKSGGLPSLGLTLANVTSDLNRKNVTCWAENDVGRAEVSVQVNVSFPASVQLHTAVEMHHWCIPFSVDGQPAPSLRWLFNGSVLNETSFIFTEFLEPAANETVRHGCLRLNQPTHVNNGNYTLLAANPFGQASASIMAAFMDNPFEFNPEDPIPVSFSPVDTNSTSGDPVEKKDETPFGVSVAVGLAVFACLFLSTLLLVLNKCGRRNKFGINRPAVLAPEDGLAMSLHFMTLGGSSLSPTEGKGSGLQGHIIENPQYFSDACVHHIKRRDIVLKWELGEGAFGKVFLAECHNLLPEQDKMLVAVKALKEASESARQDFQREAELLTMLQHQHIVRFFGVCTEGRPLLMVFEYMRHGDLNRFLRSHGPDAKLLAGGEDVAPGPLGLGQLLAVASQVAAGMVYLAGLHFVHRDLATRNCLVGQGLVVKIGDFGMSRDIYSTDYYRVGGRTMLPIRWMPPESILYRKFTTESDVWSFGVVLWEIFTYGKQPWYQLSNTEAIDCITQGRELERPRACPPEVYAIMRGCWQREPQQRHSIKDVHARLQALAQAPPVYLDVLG
Sequence of TrkB, Dog (Canis familiaris, XM_851329) on 293 cells (dog (Canis familiaris)) (Q16620 other isoform, or with tags, fused parts or gaps limits assumed): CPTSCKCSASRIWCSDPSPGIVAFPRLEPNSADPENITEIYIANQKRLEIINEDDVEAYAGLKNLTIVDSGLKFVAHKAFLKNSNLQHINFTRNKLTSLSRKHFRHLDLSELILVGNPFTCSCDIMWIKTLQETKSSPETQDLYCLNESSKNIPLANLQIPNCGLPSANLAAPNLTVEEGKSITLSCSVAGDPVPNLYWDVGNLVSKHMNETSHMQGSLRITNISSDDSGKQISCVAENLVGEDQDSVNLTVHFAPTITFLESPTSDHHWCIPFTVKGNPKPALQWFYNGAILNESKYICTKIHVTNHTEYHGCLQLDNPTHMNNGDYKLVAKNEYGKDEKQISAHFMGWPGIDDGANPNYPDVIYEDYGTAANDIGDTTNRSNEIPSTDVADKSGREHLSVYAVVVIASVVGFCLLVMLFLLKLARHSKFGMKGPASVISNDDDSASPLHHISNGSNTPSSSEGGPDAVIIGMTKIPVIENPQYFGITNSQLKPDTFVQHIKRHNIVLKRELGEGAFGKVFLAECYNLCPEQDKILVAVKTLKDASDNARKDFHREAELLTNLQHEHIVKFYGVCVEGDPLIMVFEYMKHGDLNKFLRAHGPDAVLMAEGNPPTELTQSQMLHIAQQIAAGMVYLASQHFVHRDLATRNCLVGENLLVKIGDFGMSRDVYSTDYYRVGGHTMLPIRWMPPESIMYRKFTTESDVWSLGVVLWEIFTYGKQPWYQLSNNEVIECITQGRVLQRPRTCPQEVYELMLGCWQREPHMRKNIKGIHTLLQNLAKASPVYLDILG
Sequence of hTrkB-a isoform fused to a small peptide epitope, in U2OS cells (Discoverx Pathhunter) (human) (Q16620 32-822): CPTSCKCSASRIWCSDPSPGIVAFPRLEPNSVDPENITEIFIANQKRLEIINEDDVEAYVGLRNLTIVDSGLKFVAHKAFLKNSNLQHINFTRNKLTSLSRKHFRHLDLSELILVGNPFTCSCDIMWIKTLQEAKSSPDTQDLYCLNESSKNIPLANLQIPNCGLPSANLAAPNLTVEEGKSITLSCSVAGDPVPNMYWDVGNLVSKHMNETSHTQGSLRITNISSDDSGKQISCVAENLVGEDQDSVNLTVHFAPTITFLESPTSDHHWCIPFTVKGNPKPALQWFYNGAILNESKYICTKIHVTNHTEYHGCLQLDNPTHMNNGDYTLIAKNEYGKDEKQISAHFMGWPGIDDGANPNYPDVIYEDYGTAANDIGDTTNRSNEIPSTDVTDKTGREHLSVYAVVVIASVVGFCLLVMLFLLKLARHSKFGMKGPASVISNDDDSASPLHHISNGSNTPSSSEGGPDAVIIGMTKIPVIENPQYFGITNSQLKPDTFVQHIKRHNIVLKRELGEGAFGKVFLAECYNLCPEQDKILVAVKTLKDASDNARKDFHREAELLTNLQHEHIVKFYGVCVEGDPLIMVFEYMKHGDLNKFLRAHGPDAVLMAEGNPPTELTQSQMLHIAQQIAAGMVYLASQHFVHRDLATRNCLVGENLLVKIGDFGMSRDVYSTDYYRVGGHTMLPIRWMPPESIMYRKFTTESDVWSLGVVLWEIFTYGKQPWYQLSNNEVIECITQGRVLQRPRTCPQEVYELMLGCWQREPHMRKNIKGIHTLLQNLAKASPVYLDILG

B3: NT-4 (ligand, UniProt P34130 81-210, looked up, species assumed)
Neurotrophin-4: GVSETAPASRRGELAVCDAVSGWVTDRRTAVDLRGREVEVLGEVPAAGGSPLRQYFFETRCKADNAEEGGPGAGGGGCRGVDRRHWVSECKAKQSYVRALTADAQGRVGWRWIRIDTACVCTLLSRTGRA
modifications: Neurotrophin-4
EC50, SHC1 recruitment assay [3]: 0.43 nM | Fold-increase, SHC1 recruitment assay [3]: 9 fold | EC50, SHC1 recruitment assay [4]: 0.33 nM | Fold-increase, SHC1 recruitment assay [4]: 6.1 fold | Fold-increase, SHC1 recruitment assay [5]: 1.1 fold

B4: NT3 (R&D267N3) (ligand, UniProt P20783 139-257, looked up, species assumed)
Neurotrophin-3: YAEHKSHRGEYSVCDSESLWVTDKSSAIDIRGHQVTVLGEIKTGNSPVKQYFYETRCKEARPVKNGCRGIDDKHWNSQCKTSQTYVRALTSENNKLVGWRWIRIDTSCVCALSRKIGRT
modifications: Neurotrophin-3
EC50, SHC1 recruitment assay [3]: 1.49 nM | Fold-increase, SHC1 recruitment assay [3]: 9.2 fold | EC50, SHC1 recruitment assay [4]: 0.5 nM | Fold-increase, SHC1 recruitment assay [4]: 7.7 fold | Cre-luciferase reporter, fold increase [6]: 2.9 fold | EC50, SHC1 recruitment assay [5]: 0.86 nM | Fold-increase, SHC1 recruitment assay [5]: 10.5 fold

Second part, the binder after the results:

EC50 [1]: 0.55 nM | EC50 [2]: 0.94 nM
B1: TAM-163 (huTOA-1 v1.0/1.4) (antibody, human IgG1, kappa, V domains shown)
VH: EVQLVESGGGLVQPGGSLRLSCAASGYSFTAYFMNWVRQAPGKGLEWVARINPNNGDTFYTQKFKGRFTISRDNAKNSLYLQMNSLRAEDTAVYYCARRDYFGAMDYWGQGTLVTVSS
VL: DIQMTQSPSSLSASVGDRVTITCRASQTISNNLHWYQQKPGKAPKLLIKSASLAISGVPSRFSGSGSGTDFTLTISSLQPEDFATYYCQQSNSWPNTFGGGTKVEIKR

EC50 [1]: 0.65 nM
B2: mouse TOA-1 antibody (antibody, mouse IgG1, V domains shown)
VH: EVQLQQSGPELVKPGASMKISCKTSGYSFTAYFMNWVKQSHGKSLEWIGRINPNNGDTFYTQKFKGKATLTVDKSSNTAHMELLSLTSEDSAIYYCGRRDYFGAMDYWGQGTSVTVSS
VL: AIVLIQSPATLSVTPGDSVSLSCRASQTISNNLHWYQQKSHESPRLLIKSASLAISGIPSRFSGSGSGTDFTLSISSVETEDFGMYFCQQSNSWPNTFGGGTKLEIK

Source: patent publication US20200123260A1
